Experimental data published in patent US20260055143A1, “HIGH AFFINITY VARIANTS OF SH2 DOMAINS” (Axoiya Inc., priority 2023, published 2026).
Each block holds one molecule with its values, some of them ahead of it.

Experiments:
[1] = molecular target: Ezrin peptide (PPV{pTyr}EPVS (SEQ ID NO: 257)) (Homo sapiens, UniProt P15311); experiment: Competitive phage ELISA, Fes variants; format: binding; details: IC50-based, fold over Fes wt
Procedure: (§1) Competitive and non-competitive phage ELISAs were performed as previously described with minor modifications to the protocol. Peptide sequences used for these analyses can be found in Table 4.
(§2) Streptavidin (50 ng/well in TBS (50 mM Tris-HCl pH 8.0, 150 mM NaCl) was coated onto MAXISORP plates (Thermo Scientific). Phage binding was detected using HRP conjugated anti-M13 secondary antibody (1/2000 dilution, GE Healthcare) in TBS buffer containing 0.05% Tween-20 (TBT buffer). Phage binding was detected using the 3,3′,5,5′-tetramethylbenzidine (TMB) (Thermo Fisher Scientific) chromogenic substrate. Plates were read using a PowerWave XS microplate reader (BioTek).
(§3) Competitive phage-ELISAs were used to determine binding affinity of SH2 superbinders for their cognate target. ELISAs were performed as previously described, biotinylated and phosphorylated peptides were immobilized on plates at the concentration of 0.2 μM, and available binding sites on streptavidin were blocked by adding 25 μl/well of 50 μM D-biotin in TBS. […] Data were plotted using Prism 6 software (GraphPad Software Inc) and affinity of SH2 domains was inferred from determination of the half maximal inhibition concentration (IC50).

[2] = test system: cancer cell signaling; details: expression of the autonomous domain; cited from earlier work
[3] = molecular target: QGVI{pTyr}SDLNLP (Homo sapiens, UniProt P26715); experiment: Competitive ELISA, Ptn6_C variants; format: binding
Procedure: as §1, §2, §3
Peptides listed in Table 5 were used to assay for binding affinity of each corresponding SH2 domain.

[4] = test system: pMT peptide (EEPQ{pTyr}EEIPIY (SEQ ID NO: 181)); experiment: Competitive phage ELISA, Src variants; format: binding; details: IC50-based, fold over Src wt
Procedure: as §1, §2, §3

[5] = molecular target: T1, ezrin phosphopeptide (PPV{pTyr}EPV (SEQ ID NO: 258)) (Homo sapiens, UniProt P15311); experiment: Fluorescence polarization binding assay of purified Fes-SH2 variants with peptide pEZ
T1 construct: made in house; host or cells: peptide: chemical (Fmoc) synthesis; SH2 domains: Escherichia coli BL21(DE3)
Source text: Peptide were synthesized using 9-fluorenylmethoxycarbonyl chemistry with the Prelude peptide synthesizer (Gyros Protein Technologies, Inc., Tucson, AZ) on Rink amide MBHA resin (Novabiochem, London, GB). Each peptide N-terminus was functionalized with biotin through a linker composed of two F-aminocaproic acids (Bachem). N-hydroxysuccinimide-fluorescein was used for N-terminal fluorescein labeling of the synthesized Ezrin pTyr-peptide used in fluorescence polarization tests. All peptides were purified using C-18 reverse phase HPLC (Waters) and their identity was confirmed by mass spectrometry on an Orbitrap Elite (ThermoFisher). Phosphopeptides that were used in the study but not synthesized in house were from GenScript.
Fluorescence polarization assays were performed as previously described. Briefly, binding measurements were performed in FP buffer (25 mM HEPES pH 7.5, 100 mM NaCl, 1 mM DTT, 0.01 mg/ml BSA, 0.03% BRIJ-35) by mixing in a 96-well plate 25 nM FITC-labeled Ezrin pTyr-peptide with serial dilutions of Fes-SH2 variants ranging from 1 mM to 22 nM. Samples were equilibrated at room temperature for 30 minutes before reading plates on an HTS Multi-Mode Microplate Reader (Synergy Neo) using an excitation filter of 485 nm and an emission filter of 530 nm. Dissociation constants were determined with Prism (GraphPad Software Inc) using a one-site total binding model.

B2: SuperSrc-SH2: SEQ ID 136: high affinity variant of the Src SH2 domain, BC loop SETVKGA (protein)
chain: MKIEEHHHHHHSSGKLGLNDIFEAQKIEWHESSGEDLYFQSGTTMDDYKDDDDKGGSDSIQAEEWYFGKITRRESERLLLNAENPRGTFLVRESETVKGAYALSVSDFDNAKGLNVKHYLIRKLDSGGFYITSRTQFNSLQQLVAYYSKHADGLCHRLTTVCPSR
effect on cancer cell signaling [2]: dominant negative effect

B4: Src^sFes: SEQ ID 167: Src SH2 domain with sFes graft (protein)
chain: MKIEEHHHHHHSSGKLGLNDIFEAQKIEWHESSGEDLYFQSGTTMDDYKDDDDKGGSDGIQAEEWYFGKITRRESERLLLNAENPRGTFLVREGQSQPDYVLSVSDFDNAKGLNVKHYIIRKLDSGGFYITSRTQFNSLQQLVAYYSKHADGLCHRLTTVCPSR
enhancement of affinity of the domain (times) [4]: 125

Results, then the molecule that gave them:

enhancement of affinity of the domain (times) [1]: 650
B1: Fes^sSrc: SEQ ID 145: Fes SH2 domain with sSrc graft (protein)
chain: MKIEEHHHHHHSSGKLGLNDIFEAQKIEWHESSGEDLYFQSGTTMDDYKDDDDKGGSEVQKPLHEQLWYHGAIPRAEVAELLVHSGDFLVRESETVKGAYALSVLWDGLPRHFLIQSLDNLYRLEGEGFPSIPLLIDHLLSTQQPLTKKSGVVLHRAVPSR

change in affinity ([3]; with either the sSrc or sFes graft): no improvement in affinity
change in binding ([3]; αA-2-Arg mutation alone): not sufficient to enhance the binding
B3: Ptn6_C^wt: wild-type PTN6_C SH2 domain, SEQ ID 59 (protein, listed as Homo sapiens)
chain: WYHGHMSGGQAETLLQAKGEPWTFLVRESLSQPGDFVLSVLSDQPKAGPGSPLRVTHIKVMCEGGRYTVGGLETFDSLTDLVEHFKKTGIEEASGAFVYLRQPY

IC50 ([5]; fluorescence polarization against the ezrin phosphopeptide): 1.3 µM
Fold Change ([5]; fold enhancement in apparent affinity over wt Fes SH2): 1
B5: wt: unmodified Fes SH2 domain, SEQ ID 21 (protein, listed as Homo sapiens)
chain: WYHGAIPRAEVAELLVHSGDFLVRESQGKQEYVLSVLWDGLPRHFIIQSLDNLYRLEGEGFPSIPLLIDHLLSTQQPLTKKSGVVLHRAV
